# Experimental data published in IntAct's records for PubMed 15282298.
# B1: Meiosis-inducing protein 1 (Saccharomyces cerevisiae), P21190 (parent)
# chain: MQADMHGKLHAALEDGFFLFPFEQQQQPNIYYDTTTDQEDRPCFSFGSTISPRSWHFEKSDKIASSQLQNLVHTQPIHLINPQILFNEEFLNLENIDSQPISKETKTTKDCTMATGPERGKKSSESTRSSSLSSLFSNDESASTFHSSFNNHDNFQKSNRNGDDIDISDTIKYETNTNAQKDIKIFQENFEFNEFPYTQDFYPYTTNYTYSKPTNIHESINSKNTDSYSQYQDQFPPHTDNIHSFNNRHYSNHKSTNCNYYNNTSNNNNASDNVYEADPFIDEPQVPSYYYPLEIAFDVEKSPPPSLQKLNSKELEFLKKLNSKLSRYAAAYSFSSSNDQDYYDKVRFQEISYKFSKTYS
# partner: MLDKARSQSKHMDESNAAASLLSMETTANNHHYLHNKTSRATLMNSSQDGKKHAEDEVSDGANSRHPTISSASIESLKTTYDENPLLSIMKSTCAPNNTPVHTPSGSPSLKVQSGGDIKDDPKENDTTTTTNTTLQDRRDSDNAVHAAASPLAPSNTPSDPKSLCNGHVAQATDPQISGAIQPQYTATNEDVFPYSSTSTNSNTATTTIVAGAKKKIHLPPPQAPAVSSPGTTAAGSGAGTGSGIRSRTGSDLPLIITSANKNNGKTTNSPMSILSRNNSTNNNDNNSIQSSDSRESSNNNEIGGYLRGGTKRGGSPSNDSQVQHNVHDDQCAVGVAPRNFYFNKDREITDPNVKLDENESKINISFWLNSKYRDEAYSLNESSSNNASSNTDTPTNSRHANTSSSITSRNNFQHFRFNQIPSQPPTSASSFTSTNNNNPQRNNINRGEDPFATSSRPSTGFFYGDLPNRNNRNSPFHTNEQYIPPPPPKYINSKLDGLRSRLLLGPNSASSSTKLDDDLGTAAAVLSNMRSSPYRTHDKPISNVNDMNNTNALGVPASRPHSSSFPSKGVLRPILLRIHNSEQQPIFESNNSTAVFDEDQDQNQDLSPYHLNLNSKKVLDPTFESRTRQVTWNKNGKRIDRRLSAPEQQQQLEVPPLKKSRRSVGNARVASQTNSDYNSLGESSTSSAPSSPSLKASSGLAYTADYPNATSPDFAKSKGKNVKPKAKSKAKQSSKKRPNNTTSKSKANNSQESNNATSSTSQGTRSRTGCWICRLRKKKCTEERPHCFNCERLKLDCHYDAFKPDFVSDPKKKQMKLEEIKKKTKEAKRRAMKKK
# Variants of: B1
# Details: with ume6_yeast UME6, P39001
row,Variant,effect of a mutation on the interaction
1,S302D,with no effect
2,S302A,with no effect
3,S333A,with no effect
4,S306A,with no effect

# The next lines start with the values.
row,effect of a mutation on the interaction,Variant
1,with no effect,S352A;S356A;S360A
2,with no effect,S337A
3,decreasing interaction strength,Y359F
